# From patent US20250145733A1 (University of California, published 2025)
# Changes are numbered by the printed parent chain.
# B1: FYIA_germ_SY Fab (Fab, part only; not given: light variable domain, not tied by name, V domains shown, part only)
# VH: EVQLVESGGGLVQPGGSLRLSCAASGFTFSAYAMHWVRQAPGKGLEWVAVISYEGYNAYYADSVKGRFTISRDNSKNTLYLQMNSLRAEDTAVYYCAKEGDYSRWAYDLWGRGTLVTVSS
# B2: FYIA_germ Fab (Fab, V domains shown)
# VH: B1 VH with A31S, E54D, Y56S, A58K, Y102S, A106S
# VL: QSALTQPASVSGSPGQSITISCTGTSSDVGGYNYVSWYQQHPGKAPKLMIYDVTNRPSGVSNRFSGSKSGNTASLTISGLQAEDEADYYCSSYTIASTLVVFGGGTKLTVL
# notes: Tested as monovalent Fab
# B3: FYIA_germopt Fab (Fab, V domains shown)
# VH: B1 VH with L109Y
# VL: B2 VL with R56Y, I95V, S97T
# notes: Tested as monovalent Fab; also called SYLY
# B4: SYLY-based bispecific ALPPL2×CD3 DSDbody (bispecific antibody)
# chain 1: EVQLVESGGGLVQPGGSLRLSCAASGFTFNTYAMNWVRQAPGKGLEWVGRIRSKYNNYATYYADSVKDRFTISRDDSKNSLYLQMNSLTACDTAVYYCVRHGNFGNSYVSWFAYWGQGTLVTVSSGGGGSQSALTQPASVSGSPGQSITISCTGTSSDVGGYNYVSWYQQHPGKAPKLMIYDVTYRPSGVSNRFSGSKSGNTASLTISGLQAEDEADYYCSSYTVATTLVVFGGGTKLTVLASTKGPSVFPLAPSSKSTSGGTAALGCLVKDYFPEPVTVSWNSGALTSGVHTFPAVLQSSGLYSLSSVVTVPSSSLGTQTYICNVNHKPSNTKVDKKVEPKSCHHHHHH
# chain 2: EVQLVESGGGLVQPGGSLRLSCAASGFTFSAYAMHWVRQAPGKGLEWVAVISYEGYNAYYADSVKGRFTISRDNSKNTLYLQMNSLTACDTAVYYCAKEGDYSRWAYDYWGRGTLVTVSSGGGGSDIQMTQSPSSLSASVGDRVTITCRSSTGAVTTSNYANWVQQKPGKAPKGLIGGTNKRAPGVPSRFSGSLIGDKATLTISSLQPEDFATYYCALWYSNLWVFGQGTKVEIKRTVAAPSVFIFPPSDEQLKSGTASVVCLLNNFYPREAKVQWKVDNALQSGNSQESVTEQDSKDSTYSLSSTLTLSKADYEKHKVYACEVTHQGLSSPVTKSFNRGEC
# notes: Dually stabilized diabody: inter-chain disulfide link and CH1/CL pairing; Anti-CD3 arm is humanized SP34 (hSP34k2); also called SYLY×CD3 DSDbody; SYLY DSDbody
# Assays:
# [1] = biological target: human ALPPL2 on tumor cells (M28, SKOV3, AsPC1) (human) (UniProt P10696); test: apparent KD, flow cytometry, Fab on living M28 cells
# human ALPPL2-Fc [2] = biological target: T1, human ALPPL2-Fc (human, UniProt P10696 20-503); test: biolayer interferometry, tips loaded with Fab, 5 nM human ALPPL2-Fc as analyte
# T1 construct: also called ALPG; not shown: Fc part not described
# Experimental: FIG. 1. Biolayer interferometry (BLI) measurements of the affinity of FYIA, FYIA_germ, FYIA_germ_6-6, and FYIA_germopt (aka SYLY) Fabs for human ALPPL2. Tips were loaded with Fabs, followed by an association step with 5 nM human ALPPL2-Fc then a dissociation step.
# [3] = biological target: T2, human ALPI on HEK293 cells (human, UniProt P09923 20-503); test: flow cytometry on HEK293 cells stably transfected with human ALPI, 1 h at RT
# T2 construct: whole, on cells; also called HEK293-ALPI cells
# T2 sequence (looked up): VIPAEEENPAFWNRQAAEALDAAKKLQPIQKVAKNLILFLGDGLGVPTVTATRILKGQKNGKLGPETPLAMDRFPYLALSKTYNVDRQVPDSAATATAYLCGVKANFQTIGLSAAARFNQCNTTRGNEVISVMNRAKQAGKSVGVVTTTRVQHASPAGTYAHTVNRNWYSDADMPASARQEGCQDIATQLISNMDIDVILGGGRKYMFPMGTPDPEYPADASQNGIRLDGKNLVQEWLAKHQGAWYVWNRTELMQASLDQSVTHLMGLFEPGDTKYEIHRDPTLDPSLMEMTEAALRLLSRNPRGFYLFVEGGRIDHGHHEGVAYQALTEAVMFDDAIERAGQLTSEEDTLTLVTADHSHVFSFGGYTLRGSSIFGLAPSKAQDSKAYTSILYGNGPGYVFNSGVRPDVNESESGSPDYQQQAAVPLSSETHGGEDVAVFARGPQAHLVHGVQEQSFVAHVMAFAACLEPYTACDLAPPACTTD
# Experimental: FIG. 3. Binding of FYIA, FYIA_germ, and FYIA_germopt Fabs to HEK293 cells stably transfected with human ALPI. HEK293-ALPI cells were incubated with Fabs for 1 h at RT and binding was analyzed by flow cytometry. No detectable binding was found. An ALPI-binding Fab, M25AD, was included in the study as a positive control.
# [4] = biological target: T3, human ALPPL2 on tumor cells (M28, SKOV3, AsPC1) (human, UniProt P10696 20-503); test: apparent KD, flow cytometry, Fab on living M28 cells
# T3 construct: whole, on cells; also called ALPPL2 expressing tumor cells; M28 cells
# Experimental: (§1) FIG. 2. Binding of FYIA, FYIA_germ, and FYIA_germopt Fabs to living M28 cells. M28 cells were incubated with Fabs for 1 h at RT and binding was analyzed by flow cytometry.
# FIG. 4. Additional Fabs (FYIA_germ_SY and FYIA_germ_6-6) were also studied along with FYIA, FYIA_germ, and FYIA_germopt Fabs for binding to living M28 cells. M28 cells were incubated with Fabs for 1 h at RT and binding was analyzed by flow cytometry.
# [5] = biological target: T3, human ALPPL2 on tumor cells (M28, …); test: cell binding study, monovalent Fab on M28 cells, flow cytometry
# Experimental: as §1
# [6] = biological target: T3, human ALPPL2 on tumor cells (M28, …); test: flow cytometry on AsPC1 cells, anti-hexahistidine detection, curve fit of MFI; AsPC1 pancreatic cancer cells, flow cytometry
# Experimental: The bispecific (ALPPL2×CD3) SYLY DSDBody was incubated with AsPC1 cells at room temperature for 1 h, washed and further incubated with anti-tag (hexahistidine (SEQ ID NO: 102)) antibodies for detection by flow cytometry. […] See, FIG. 24.
# [7] = biological target: T3, human ALPPL2 on tumor cells (M28, …); test: cell-based or functional assay
# ALPP on HEK293 cells = ALPP on HEK293 cells (UniProt P05187 23-506, limits assumed); test: cell-based or functional assay
# [8] = biological target: T3, human ALPPL2 on tumor cells (M28, …); test: apparent KD, flow cytometry on living M28 cells; M28 mesothelioma cells, flow cytometry
# human ALPPL2-Fc [9] = biological target: T1, human ALPPL2-Fc; test: biolayer interferometry, tips loaded with human ALPPL2-Fc, 100 nM DSDbody as analyte
# Experimental: (§2) FIG. 12. Binding of SYLY×CD3 DSDbody to human ALPP2 and ALPI measured by biolayer interferometry. Tips were loaded with either human ALPPL2-Fc or human ALPI-Fc, followed by an association step with 100 nM SYLY×CD3 DSDbody and then a dissociation step. Calculated affinites are shown in the graph. ND: not determined.
# (§3) The DSDbody was also evaluated by biolayer interferometry for cross-species binding to both human and cynomolgus monkey CD3 epsilon chains.
# human CD3 epsilon [10] = biological target: T4, human CD3 epsilon (human, UniProt P07766 23-126); test: BLI; tips loaded with human CD3 epsilon, association with 100 nM SYLYxCD3 DSDbody, then dissociation
# Experimental: (§4) FIG. 13. Binding of SYLY×CD3 DSDbody to human and cynomolgus monkey CD3 epsilon measured by biolayer interferometry. Tips were loaded with either human or cynomolgus monkey CD3 epsilon, followed by an association step with 100 nM SYLY×CD3 DSDbody and then a dissociation step.
# as §3
# human ALPI-Fc = biological target: T5, human ALPI-Fc (human, UniProt P09923 20-503); test: BLI; tips loaded with human ALPI-Fc, association with 100 nM SYLYxCD3 DSDbody, then dissociation
# T5 construct: not shown: Fc part not described
# T5 sequence (looked up): T2 sequence (looked up)
# Experimental: as §2, §3
# human ALPPL2-Fc [11] = biological target: T1, human ALPPL2-Fc; test: BLI; tips loaded with human ALPPL2-Fc, association with 100 nM SYLYxCD3 DSDbody, then dissociation
# Experimental: as §2, §3
# [12] = biological target: T6, cynomolgus monkey CD3 epsilon (cynomolgus monkey, UniProt Q95LI5 22-117); test: BLI; tips loaded with cynomolgus monkey CD3 epsilon, association with 100 nM SYLYxCD3 DSDbody, then dissociation
# T6 sequence (looked up): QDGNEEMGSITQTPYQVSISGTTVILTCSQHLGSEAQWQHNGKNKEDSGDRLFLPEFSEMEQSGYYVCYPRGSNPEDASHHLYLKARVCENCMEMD
# Experimental: as §4, §3
# [13] = biological target: T3, human ALPPL2 on tumor cells (M28, …); test: apparent KD, flow cytometry on living SKOV3 cells
# Experimental: FIG. 16. Binding of the SYLY-based bispecific (DSDbody) to living SKOV3 cells. SKOV3 cells were incubated with Fabs for 1 h at RT and binding was analyzed by flow cytometry. […] There is no binding by the control bispecific YSC10×CD3 DSDbody that is built on a non-binding isotype control antibody YSC10.
# In addition to mesothelioma cells, binding of the SYLY-based bispecific ALPPL2×CD3 DSDbody was also studied on the ovarian cancer cell line SKOV3. […] No binding was detected by the control bispecific YSC10×CD3 that is built on a non-binding isotype control antibody YSC10. For comparison, a reference DSDbody constructed from the parental FYIA was also studied on SKOV3 cells using flow cytometry.
# human CD3 epsilon [14] = biological target: T4, human CD3 epsilon; test: biolayer interferometry, tips loaded with human CD3 epsilon, 100 nM DSDbody as analyte
# Experimental: as §4, §3
# T3 sequence (P10696 20-503): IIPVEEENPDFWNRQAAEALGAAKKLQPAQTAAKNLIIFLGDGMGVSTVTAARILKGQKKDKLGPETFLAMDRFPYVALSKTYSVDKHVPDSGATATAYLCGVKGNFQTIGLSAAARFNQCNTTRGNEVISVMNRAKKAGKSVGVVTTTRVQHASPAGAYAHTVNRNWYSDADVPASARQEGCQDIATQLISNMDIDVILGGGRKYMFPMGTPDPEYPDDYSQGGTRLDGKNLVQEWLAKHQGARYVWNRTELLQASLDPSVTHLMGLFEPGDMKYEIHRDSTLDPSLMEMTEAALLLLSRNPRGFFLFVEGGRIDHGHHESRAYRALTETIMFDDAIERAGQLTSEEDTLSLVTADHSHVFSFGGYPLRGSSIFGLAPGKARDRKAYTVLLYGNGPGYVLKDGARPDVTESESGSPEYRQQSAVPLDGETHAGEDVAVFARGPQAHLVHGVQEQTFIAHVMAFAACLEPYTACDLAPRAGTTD
# T1 sequence (P10696 20-503): as above
# T4 sequence (P07766 23-126 limits assumed): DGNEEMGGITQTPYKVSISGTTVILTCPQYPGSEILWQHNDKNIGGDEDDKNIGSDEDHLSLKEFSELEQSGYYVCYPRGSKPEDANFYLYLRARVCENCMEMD
# Sequence of ALPP on HEK293 cells (P05187 23-506 limits assumed): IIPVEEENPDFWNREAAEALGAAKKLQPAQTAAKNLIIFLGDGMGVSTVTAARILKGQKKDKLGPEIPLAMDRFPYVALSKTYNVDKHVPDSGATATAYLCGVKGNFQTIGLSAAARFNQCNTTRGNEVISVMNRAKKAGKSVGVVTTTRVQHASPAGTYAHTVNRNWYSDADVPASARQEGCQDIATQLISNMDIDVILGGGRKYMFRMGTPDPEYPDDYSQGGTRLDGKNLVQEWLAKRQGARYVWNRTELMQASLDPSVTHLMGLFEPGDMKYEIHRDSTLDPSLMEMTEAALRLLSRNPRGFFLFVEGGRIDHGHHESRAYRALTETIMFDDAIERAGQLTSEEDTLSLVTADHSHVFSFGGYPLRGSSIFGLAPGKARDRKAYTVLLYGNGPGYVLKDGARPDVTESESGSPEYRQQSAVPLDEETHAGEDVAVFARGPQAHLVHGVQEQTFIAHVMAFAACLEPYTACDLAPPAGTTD
# Sequence of human ALPPL2 on tumor cells (M28, SKOV3, AsPC1) (human) (P10696 20-503): as the sequence (P10696 20-503) above
binder,measurement,setting,value
B1,Kd,[1],1.27 nM
B2,Kd,human ALPPL2-Fc [2],13 nM
same,binding result,[3],no binding (tested: 10000 nM)
same,Kd,[4],69.4 nM
B3,Kd,human ALPPL2-Fc [2],0.19 nM
same,fold improvement over the parental FYIA,[5],> 30 fold
same,binding result,[3],no binding (tested: 10000 nM)
same,Kd,[4],0.967 nM
B4,Kd,[6],4.35 nM
same,"EC50 of killing of SKOV3 cells with human PBMC (E:T 10:1, 96h, Calcein AM)",[7],0.0003 nM
same,"EC50 of killing of HEK293-ALPP cells with human PBMC (E:T 10:1, 72h, Calcein AM)",ALPP on HEK293 cells,0.0085 nM
same,Kd,[8],2.4 nM
same,Kd,human ALPPL2-Fc [9],~0.2 nM
same,Kd,human CD3 epsilon [10],25 nM
same,binding result,human ALPI-Fc,no binding (tested: 100 nM)
same,Kd,human ALPPL2-Fc [11],0.2 nM
same,Kd,[12],18 nM
same,Kd,[13],0.19 nM
same,Kd,human CD3 epsilon [14],20 nM
